Each binder was assayed against T1, human (h)TNF-α (human, UniProt P01375 77-233) (assay: phage display selection on hTNF-α-coated tube, PCR of phage still bound after acid wash).
T1 construct: Bought purified protein; also called TNF-alpha; Tumor Necrosis Factor α
Procedure: A thin-walled PCR tube was coated with the target human (h)TNF-α (BioSource International; Camarillo, Calif.) by incubating 100 μl of 0.5 mg/ml purified TNF-α in PBS overnight at 4° C. in the PCR tube. Excess unbound TNF-α was removed, and the tube was coated overnight at 4° C. with 100 μl of SuperBlock™ blocking buffer (Pierce: Rockford, Ill.) in Tris buffered saline (TBS). The anti-target (SuperBlock™ blocking buffer) was prepared in separate PCR tubes coated overnight at 4° C. with 100 μl of SuperBlock™.
Unbound phage were removed by washing the tube 5 times with 150 μl PBS containing 0.1% Tween-20 at room temperature. Low affinity binders were washed away by incubating with 60 μl of 0.2 M Glycine (pH 2.2) for 6 minutes followed by neutralization with 9 μl M Tris-Cl (pH 9.1). The acid washed population was retained for further analysis. The tube was then washed again 3 times with 150 μl of PBS.
This was due to too much template (i.e. phage) in the PCR reaction, and can be alleviated by decreasing the phage concentration or by decreasing the number of PCR cycles (FIG. 3). To decrease the amount of the 500-700 bp diffuse band, the PCR product was diluted appropriately for subsequent PCR reactions from this starting material to generate more products for sub-cloning purposes.

T1 sequence (P01375 77-233 limits assumed): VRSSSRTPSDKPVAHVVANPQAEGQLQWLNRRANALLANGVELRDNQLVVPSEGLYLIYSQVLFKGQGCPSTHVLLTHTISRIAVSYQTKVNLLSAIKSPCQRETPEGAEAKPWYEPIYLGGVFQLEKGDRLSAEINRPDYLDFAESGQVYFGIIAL

Binder | binding result
GQTHFHV [T11 (GQTHFHV)] | binds
TMLPYRP [T7 (TMLPYRP)] | binds
SILPVSH [T13 (SILPVSH)] | binds
LTQSFSS [T9 (LTQSFSS)] | binds
THKNTLR [T10 (THKNTLR)] | binds
WTPKPTQ [T4 (WTPKPTQ)] | binds
ATFPNQS [T5 (ATFPNQS)] | binds
LSQPIPI [T14 (LSQPIPI)] | binds
APEPILA [T2 (APEPILA)] | binds
QPLRKLP [T15 (QPLRKLP)] | binds
LPILTQT [T12 (LPILTQT)] | binds
DMIMVSI [T3 (DMIMVSI)] | binds
AWHSPSV [T8 (AWHSPSV)] | binds
ASTVGGL [T6 (ASTVGGL)] | binds

Each binder was assayed against T1, human (h)TNF-α (assay: IAsys biosensor, dissociation in 10 mM HEPES/0.05% Tween).
Procedure: The binding and dissociation of phage clone A1, amino acid sequence: RYWQDIP; Table 1, (SEQ ID NO: 3) to TNF-α was monitored using an lAsys AutoPlus Biosensor following the Labsystems Affinity Sensors lAsys Protocol 2.4 ‘Immobilization to Protein Layer: Thiol coupling to avidin’ (Thermo BioAnalysis Corp. Franklin, Mass.). Two cuvettes were first coated with avidin and one (the control) was then blocked with biotin. This was followed by activation of the lysine groups. A 15 μl aliquot of a 1 mg/ml (h)TNF-α solution was added to each cuvette. […] After blocking and washing, phage clone A1, RYWQDIP (SEQ ID NO: 3) was added to give a final titer of 5×10¹¹ pfu/ml.
The dissociation of the phage from the TNF-α is very slow with the dissociation constant estimated as koff<10⁻⁴ sec⁻¹ (10 mM HEPES/0.05% Tween). Washing with a 1×buffer concentrate (at the 70 min time point) only removed a small portion of the phage.

Binder | koff
RYWQDIP (also called T1; phage peptide clone A1) [phage clone A1, amino acid sequence RYWQDIP] | < 0.0001 s⁻¹
